These results are taken from patent publication US20220098295A1 (ALLERGAN, published 2022).

For orientation: IC50 means the midpoint of a concentration-inhibition curve. Read a low IC50 as greater potency in that assay. A word on the kon: it is a measure of how fast the partners come together. A high value points to fast association. Broadly, the Kd is the concentration at which binding is half-saturated. One may read the koff as a measure of how fast the partners let go of each other. Lower therefore signals slow dissociation.

Test [1] concerns the target T1, human PDGF-BB (R&D system, 220-BB) (human, UniProt P01127 82-190, biotinylated in the blocking ELISA of Example 4 (sites not given); unlabelled in the SPR assay).
T1 construct: Bought protein (R&D Systems), a homodimer of two B subunits; also called human biotinylated PDGF-BB
Briefly: blocking ELISA: HCAb dilutions with 2 nM biotinylated PDGF-BB, binding to coated PDGFRβ-Fc. How it is done:
Two micrograms per milliliter per well of PDGFRβ-Fc (R & D Systems) was coated on 96 well microtiter plates overnight at 4° C. In a separate plate, serial dilutions of anti-PDGF BB HCAb were incubated with 2 nM human biotinylated PDGF-BB (R&D Systems) for 1 hr. One hundred microliters of the anti-PDGF BB HCAb-PDGF-BB mix were applied to the PDGFRβ-Fc-coated microtiter plate for 1 hr. The detection antibody (anti-biotin HRP) was then added for 1 hr and the ELISA was developed with a chemiluminescent HRP substrate and read by an ELISA plate reader. Anti-PDGF BB HCAb blocked the binding of PDGF-BB to its receptor PDGFRβ and IC₅₀ of anti-PDGF BB HCAb blocking to PDGFRβ is summarized in Table 4.
(In general: In an ELISA, binding on a coated surface is turned into a signal by an enzyme label.)

Test [2] deals with T1, human PDGF-BB (R&D system, 220-BB). Briefly: SPR (Biacore T200, 25 C), HCAb captured by anti-human IgG Fc, PDGF-BB 0.625-10 nM as analyte, 1:1 model. How it is done:
(§1) Anti-human IgG Fc antibody was directly immobilized across CM5 biosensor chip (GE Healthcare) using a standard coupling kit (GE Healthcare, BR-1008-39) according to the manufacturer's instructions. Purified anti-PDGF-BB HCAb molecules were diluted in running buffer HBS-EPB (GE Healthcare, BR-1006-69) at 0.5 to 1.0 μg/ml and captured on the coupled across anti-human IgG Fc surface. A 2-fold serial dilution of human PDGF-BB (R&D system, 220-BB) range from 0.625 to 10 nM were injected over anti-PDGF-BB HCAb captured surface at a flow rate of 30 μl/min. Associating rates (Ka) and dissociation rates (Kd) were calculated based on 1:1 Langmuir binding model with BIAcore T200 evaluation software version 2.0 (GE Healthcare). The equilibrium dissociation constant (Kd) was determined by the ratio Koff/Kon.
A general note: SPR reads the build-up and loss of mass on a sensor chip optically.

The target is the same in test [3]. Briefly: SPR (Biacore T200, 25 C), HCAb captured by anti-human IgG Fc, PDGF-BB as analyte. How it is done: as §1
The target is the same in test [4]. Briefly: SPR (Biacore T200, 25 C), HCAb captured by anti-human IgG Fc, PDGF-BB as analyte; * over the limit of detection. As to the method: as §1
Test [5] has the same target. Briefly: Real-time sensorgram with response in nm (assay not given). Sample 'P36F3', association with rhPDGF BB at 25 - 500 nM. The column is headed kdis(1/s).
For test [6] the target is unchanged. Briefly: Real-time sensorgram with response in nm (assay not given). Sample 'P36F3', association with rhPDGF BB at 25 - 500 nM.

Substitutions are numbered along the chain they refer to.

T1 sequence (P01127 82-190 limits assumed): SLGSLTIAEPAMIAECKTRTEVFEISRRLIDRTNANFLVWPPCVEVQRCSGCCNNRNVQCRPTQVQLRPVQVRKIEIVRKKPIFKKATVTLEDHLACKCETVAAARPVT

B1: anti-PDGF BB HCAb P36E10 (antibody, IgG1, V domains shown)
VH: QVQLLESGGGLVQPGGSLRLSCAASGFTFSSYAMSWVRQAPGKGLEWVSAISGSGGSTYYADSVKGRFTISRDNSKNTLYLQMNSLRAEDTAVYYCASNSGFFTLSGFIRYKFWGQGTLVTVSS
notes: Heavy chain only antibody, no light chain; VH fused to IgG1 hinge and CH2/CH3; not shown: human IgG1 hinge region and CH2/CH3 regions (no CH1)
Molecule B1 had an IC50 in test [1] of 21.4 nM. For the same molecule, in test [2], the association rate constant (kon) stood at 42100 M⁻¹ s⁻¹. In test [3], this molecule displayed a Kd of 0.455 nM and a koff of 1.92e-05 s⁻¹.

B2: anti-PDGF BB HCAb P36C12 (antibody, IgG1, V domains shown)
VH: B1 VH with S98R, G101E, F102I, T104M, L105V, S106K, F108V, R110Q, K112N, F113S
notes: Heavy chain only antibody, no light chain; VH fused to IgG1 hinge and CH2/CH3; It is printed in places as P36012, which looks like a misprint of P36C12; also called P36012; not shown: human IgG1 hinge region and CH2/CH3 regions (no CH1)
In the case of B2, in test [4], the Kd was below 0.001 nM and the koff was below 1e-06 s⁻¹. For the same molecule, in test [1], the IC50 came out at 1.07 nM. The association rate constant (kon) in test [2] was determined as 1e+06 M⁻¹ s⁻¹.

B3: anti-PDGF BB HCAb P36A4 (antibody, IgG1, V domains shown)
VH: B1 VH with A23P, S98R, S100N, F102I, T104M, L105F, S106R, F108V, F113S
notes: as for B1
As to B3, the concentration for half-maximal inhibition (IC50) in test [1] is 3.77 nM. For the same molecule, the kon in test [2] is 654000 M⁻¹ s⁻¹. For the same molecule, in test [3], the Kd was found to be 0.00179 nM and the koff was 1.17e-06 s⁻¹.

B4: anti-PDGF BB HCAb P36E8 (antibody, IgG1, V domains shown)
VH: B1 VH with G101E, F102L, T104K, L105V, S106N, F108V, K112D
notes: as for B1
In test [4], B4 displayed a dissociation constant Kd below 0.00412 nM and a koff below 1e-06 s⁻¹. Further, the IC50 in test [1] was 5.52 nM. Also, the kon in test [2] is 243000 M⁻¹ s⁻¹.

B5: anti-PDGF BB HCAb P36A3 (antibody, V domains shown)
VH: B1 VH with G101V, F103S, S106K, I109L, R110Q
notes: Heavy chain only antibody, no light chain; VH fused to IgG1 hinge and CH2/CH3 and made in CHO cells as fully human recombinant HCAb; It was captured by anti-human IgG Fc in the SPR assay; not shown: human IgG1 hinge region and CH2/CH3 regions (no CH1)
In test [4], B5 came in with a Kd below 0.00457 nM and an off-rate (koff) below 1e-06 s⁻¹. In test [1], the IC50 came out at 7.75 nM. Further, the association rate constant (kon) in test [2] was 219000 M⁻¹ s⁻¹.

B6: P36F3 (bispecific antibody, part only; not given: linker, domain order, Fc, V domains shown, not shown: another chain or arm of the molecule; a dimerising Fc or GST; small tags and cut ends)
VH 1: QVQLVESGGGLVQPGGSLRLSCAASGFTFSSYWMHWVRQAPGKGLVWVSRINSDGSSTSYADSVKGRFTISRDNAKNTLYLQMNSLRAEDTAVYYCAKDKGITMVRGVIHFDYWGQGTLVTVSS
VH 2: QVQLVESGGGLVQPGGSLRLSCAASGFTFSSYWMHWVRQAPGKGLVWVSRINSDGSSTSYADSVKGRFTISRDNAKNTLYLQMNSLRAEDTAVYYCAREGYSSGGQFDYWGQGTLVTVSS
In turn, B6 came in with a koff in test [5] of 1.1e-06 s⁻¹. In test [6], this molecule had a Kd of 0.0434 nM and an on-rate constant (kon) of 25300 M⁻¹ s⁻¹.

B7: anti-PDGF BB HCAb P36F3 (antibody, IgG1, V domains shown)
VH: B6 VH 1
notes: as for B1
With B7, in test [1], the IC50 was found to be 1.71 nM. The molecule further registered a kon in test [2] of 988000 M⁻¹ s⁻¹. In test [3], this molecule returned a Kd of 0.00883 nM and a koff of 8.73e-06 s⁻¹.
